The data set can be described thus: yeast display, Sf9 membrane polyspecificity reagent, FACS + sequencing; frameworks hold sequencing errors. An outline of the steps: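 Using colony PCR, genes from sorted yeast display clones were amplified, then sequenced on MiSeq at 2 × 250 and filtered by CDR length. The clones had been stained with 10% biotinylated, detergent-solubilized Sf9 membrane reagent for 1 hour at 4 °C and sorted by FACS into low and high (top ~1%) gates on anti-HA and streptavidin fluorescence. Polyreactivity labels come from the gate of origin.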
Take “QDQLVESGGGLVQAGGSLRLSCAPSGRIFTTYGMGWYSQAPGKERELVAAISRSGGSTYYADSVKGRFTISRDNAKNTVYLQMNSLKPEDTAVYYCAAVPTSNSFRSSFYYWGQGTQVTVSS”: the “polyreactivity (PSR sort gate)” value is given as “high polyreactivity”. For the sequence “QDQLVESGGGLVQAGGSLRLSCDASGSTFLVYAMGWYRQAPGKERELVAAITQIDGSTYYADSVKGRFTISRDNAKNTVYLQMNSLKPEDTAVYYCAARYFWTYEYDYWGHGTQVTVSS”, the “polyreactivity (PSR sort gate)” value was “low polyreactivity”. As for “QDQLVESGGGLVQAGGSLRLSCGASGGIFWKYAMGWYRQAPGKERELVAAISRSGSSTYYADSVKGRFTISRDNAKNTVYLQMNSLKPEDTAVYYCAAQPYDSNYGNSGYWGQGTQVTVSS”, the “polyreactivity (PSR sort gate)” value is “high polyreactivity”. Take “QDQLVESGGGLVQAGGSLRLSCSATGRIFRSYAMGWYRQAPGKERELVASITWRGSSTYYADSVKGRFTISRDNAKNTVYLQMNSRKPEDTAVYYCAKEGYLYLWRYDYWGQGTQVTVSS”: the “polyreactivity (PSR sort gate)” value is recorded as “high polyreactivity”. For the sequence “QDQLVESGGGLVQAGGSLRLSFAASGSTFFTYPMGWYRQDPGKERELVAAITLNGGSTYYADSVKGRFTISRDNAKNTVYLQMISLKPEDTAVYYCAAEVPDTDYNYWGQGTQVTVSS”, the “polyreactivity (PSR sort gate)” value is recorded as “low polyreactivity”. To “QDQLVESGGGLVQAGGSLRLSGAASGSTFDRYAMGWYRQAPGKEREFVAAITWGGGSTYYADSVKGRFTISRDNAKNTVYLQMNSLKPEDTAVYYCASRYGATFGYWGQGTQVTVSS” belongs “low polyreactivity”. For the sequence “QDQLVESGGGLVQAGGSLRLTCAASGFIFYHYAMGWYRQAPGKERDLVAAINWSGGSTYYADSVKGRFTISRDNAKKTDYLQMNSLKPEDTAVYYCAAYSTAWYWPGKFDYWGQGTQVTVSS”, the “polyreactivity (PSR sort gate)” value is “high polyreactivity”. To “QDQLVESGGGLVQAGGSLRLTCAASGRICTYYAMGWYRKATGKERELVASISRSGGNTYYADSVKGRFTISRDNAKNTVYLQMNSLKPEDTAVYYCAAVYSRLDYWGQGTQVTVSS” belongs “high polyreactivity”; to “QDQLVESGGGLVQAGGSLSLSCAASGQTFYQYAMGWYRQAPGKERELVAAISKSAGSTYYADSVKGRFTISRDNAKNTVYLQMNSLKPEDTAVYYCVARVLRLRYDYWGQGTQVSVSS”, “high polyreactivity”; to “QDQLVESGGGLVQAGGSLSLSCAASGSIFFRNVMGWYRQAPGKERELVAAISGSGGRTYNADSVKGRFTISRDNAKNTVYLQMNSLKPEDTAVYYCYADYWSRRDDHDYWGQGTQVSVSS”, “high polyreactivity”. For “QDQLVESGGGLVQAGGSQRLSCAASGFTFRRYAMGWYRQEPGKERELVAVITTAGSTNYADSVKGRFTISRDNAKNTVYLPMNSLKPEDTAVYYCATDNGTRKGRYDYWGQGTQVTVSS”, the “polyreactivity (PSR sort gate)” value is “low polyreactivity”. Take “QDQLVESGGGLVQAGRSLRLSCAASGSIFTVYAMGWYRQAPGKEWELVASISTGGSTNYADSVKGRFTISRDNAKNTVYLPMISLKPEDTAVYYCAATGWAYGYGYGYWGQGTQVTVSS”: the “polyreactivity (PSR sort gate)” value was “low polyreactivity”. In the case of “QDQLVESGGGLVQAGVSLRLSCAASGSTFAYITMGRYRQAPGKERELVAAISWRGTRTYYADSVKGRFTISRDNAKNNVYLQMNSLKPEDTAVYYCATKDGISYDYWVQGTQVTVSS”, the “polyreactivity (PSR sort gate)” value is reported as “high polyreactivity”. Take “QDQLVESGGGLVQARGPLRLSCSASGFNFSNYAMGWYRHAPGKERELVAAISFTGSNTYYADSVKGRFTISRDNAKNTVYLQMNSLKPEDTAVYYWNDPLVWGVYAAQNWDEGYWGQGTQVTVSS”: the “polyreactivity (PSR sort gate)” value is “low polyreactivity”. To “QDQLVESGGGLVQARVSLRLSSAASGFIFRWNTMGWYRQAPGKERELVAAISSRGGSTYYAYSVKGRFKISRDNAKNTVYLQMNSLKPEDTAVYYCNAVRGDEYWGQGTQVTVSS” belongs “high polyreactivity”.

For “QDQLVESGGGLVQEGGSLRLSCAASVSIQAPYAMGWYRQAPGKERELVAAISSRGGSTYYADSVKGRFTISRDNAKNTVYLQMNSLKPEDTAVYYCAAYVYLQVEYDYWGQGTQVTVSW”, the “polyreactivity (PSR sort gate)” value is listed as “low polyreactivity”. With “QDQLVESGGGLVQPGGSLRLSCAASGITFYYYTMGWYRQAPGKERELVAGITRGGRTYYADSVKGRFTISRDNAKNTVYLQMNSLKPVDSAVYYCNADPWWRFDYWGQGTQVTVSS”, the “polyreactivity (PSR sort gate)” value is on record as “low polyreactivity”. Regarding “QDQLVESGGGLVQTGGSLRLSCASSGLIFTYYALGWYRQAPGTERELVAANRGSYSSTYYADSVKGRFTISRDNAKNTVYLHMNSLKPEDTAVYYCAAKYYWGQGTQVTVSS”, the “polyreactivity (PSR sort gate)” value is “high polyreactivity”. With “QDQLVESGGLLVQAGGSLRLSCAAYGSTIGVYAMGWYRQAPRKERELVAAISSSTGSTYYADSVKGRFTISRDNAKNTVYLQMIRQKPEDTAVFYCAAAGYGKVRGDYWGQGTQVSVSS”, the “polyreactivity (PSR sort gate)” value is recorded as “low polyreactivity”. The value for “QDQLVESGGRIVQAGGSLRLSCAASGRIFSVYARGWYRQAPGKERELVATISDGGATTYYADSVKGRFTISRDNAKNTVFFQMNSLKPEDTAVYYCAADKRGRPGLPDYDSWGQGTEVTVSS” was “low polyreactivity”; that for “QDQLVESGGRLVQAGGSLRLSCAASGFILSTYAMGWYRQAPGKERELVAAISSSGTSTYYADSVKGRFTISRDNAKNTVYLQMNSLKPEDTAVYYCARVSKRTWSGYYYWGQGTQVTVST” was “high polyreactivity”; that for “QDQLVESGLGIVQAGGSLRLSCAASGYTFSQYSMGWYRQAPGKERELVAAIDSGSKTKYADSVKGRFTISRDNAKNTVYLQMNSLKPEDSAVYYCAADDSYRSIGGDYWGQGTQVTVSS” was “low polyreactivity”. For the sequence “QDQLVESGVGLVQAGGSHRLSCAASGSTFYRYAMRWYRQAHGKERELVATITTGGSSTYYADSVKGRFTISRDNAKNTVYLQMNSLKPEDTAVYYCAKVYTYSGVNLRRISTPYGYWGQGTQVTVSS”, the “polyreactivity (PSR sort gate)” value is on record as “high polyreactivity”. For “QDQLVESGVGLVQAGGSLRLSCAASGRILGRNAMGWYRQAPGKERELVAAISSGVSTNYADSVKGRFTISRANAKNTVYLQMNSLKPEDTAVYYWGQGTQVTVSS”, the “polyreactivity (PSR sort gate)” value is on record as “low polyreactivity”. On to “QDQLVESRGGIVQAGGRLRLSCAASGSRFGGYGMGWYRQAPWKEREFVAVITKRGGSTYYADSVKGRFTISRDNAYNTVYLQMNSLKPEDTAVDYCNKVGYYASVLCYDYWGQGTQVTVSS”, for which the “polyreactivity (PSR sort gate)” value is “high polyreactivity”.

In the case of “QDQLVESRGGLVQAGGSLRLICDASGFTFDSNAMVWYRQEPGKERQLVAAISARGTSTYYADSVKGRFTISRDNAKNTVYLQMNSLKPEDTAVYDCNTGESSWYLPEEDYWGQGTQVTLSS”, the “polyreactivity (PSR sort gate)” value is “low polyreactivity”. As to “QDQLVESRGGLVQAGGSLRLSCAASGFTFPSYAMGWYRQAPRKERELVAAITRSGGRTYYADSVKGRFTISRDNAKNTVYLQMNILKPEDTAVYYGAADRAAPRYDYWGQGTQVTVSS”, the “polyreactivity (PSR sort gate)” value is “high polyreactivity”. With “QDQLVESRGGLVQAGGSLRLSCAASGGTFRVYAMGWFIQAPGKERELVAAISSGGSTNYADSVNGRFTISRDNSKNTVYLQMNSLKPEDTAVYYCAADRVGWSVYRGDYWGHGTQVTVSS”, the “polyreactivity (PSR sort gate)” value is “high polyreactivity”.

In the case of “QDQLVESRGGLVQAGGSLRLTCAASGSTFVIYDMGWYSQATGKERELVAVITIIGGSTYYADSVKGRFTISRDNAKNTVYLQMNSLKPEDTAVYYCNANVIQDYPNYDYWGQGTQVSVSS”, the “polyreactivity (PSR sort gate)” value is “low polyreactivity”. On to “QDQLVESRGVLVQAGGSLRLSCAASGSTFEANAMGWYRQAPGKERELVAVITWTGGSTYYADSVKGRFTISRDNAKNTVYLQMNSLKPEDTAVYYCAADGVVPGRFFWPAHEYDYWGQGTQVTVSS”, for which the “polyreactivity (PSR sort gate)” value is recorded as “low polyreactivity”. Consider “QDQLVESVGGLDQAGVSLRLSCAASGFIFRAYAMGWYRQAPGKERELVAAITKRSGTTYYADSVKGRFTISRDNAKNTVYLQMNSLKPEDTAVYYCAAKTLYNSGTQDRAMGYWGQGTQVTVSS”, for which the “polyreactivity (PSR sort gate)” value is reported as “high polyreactivity”. Turning to “QDQLVESVGGLVQAGGSLRLSCAASGLTFEVYAMGWSRQAPGKDRELVAAISSGGRSTYYADSVKGRFTISRDNAKNTVYLQMNSRKPEDSAVYYCNAVAKLYYWRYDYWGQGTQVTVSS”, the “polyreactivity (PSR sort gate)” value is “low polyreactivity”. “QDQLVESVGGLVQAGGSLRLSCAASGSTFTSNAMGWYRQAPGKERELVAVITIGGSTNYADSVKGRFTISLDNAKNSVYLQMNSLKPEDTAVYYCAAELFPLQHFWGAYATRRYDYWGQGTQVTVSS”: the “polyreactivity (PSR sort gate)” value is on record as “low polyreactivity”. As for “QDQLVESVVGLVQAGGSLRLSCAASGRIFEDYAMGWYRQAPGKERELVARICSGDSTNYADSVKGRFTISRDNAKNTVYLQMNSLKPEDTAVYYCAAEGGVQEFDFCGQGTQVTVSS”, the “polyreactivity (PSR sort gate)” value is recorded as “low polyreactivity”. With “QDQLVESWVGLVQAGGSLRLSYAASGYIIKYNAMGRYRHAPRKERELVAAISSIGGRTYYADSVKARFTISRDNAKNNVYLQINILKPEDTAVYYFNAVGGRYTGWRYDYWGQGTQVTVSS”, the “polyreactivity (PSR sort gate)” value is on record as “high polyreactivity”. “QDQLVETGGGLVQAGGSLRLSCAASGSTFAYYTMGWYRPAPGKERELVAAISSGGITYYAYSVKGRFTISRDNAKNTVYLQMNSLKPEDTAVYYCAAYRTHGPPRAIRFDYWGQGTQVTVSS”: the “polyreactivity (PSR sort gate)” value was “high polyreactivity”.

For “QDQLVETGGGLVQAGGSLRLSCAASGSTFWGNAMGWYRQAPGKESELVAAISTSDTSTYYADSVKGRFTISRDNAKNTVYLQMNSLKPEDTAVYYCAAEWYYGEKYDYWGQGTQVTVSS”, the “polyreactivity (PSR sort gate)” value was “low polyreactivity”. For the sequence “QDQLVKSGGGLVQAGGSLRLSCAASGSTFTRNAMGWYRQAHGKERELVAAITLRGGRTYYADSVNGRFTISRDNAKNTVYLHMNSLKPEDTAVYYCAAKPYSAYSYYEQRGRKYDYWGQGTQVTVSS”, the “polyreactivity (PSR sort gate)” value is “low polyreactivity”. For the sequence “QDQLVVSGGGLVQAGGSHSLSCAASGSIFIGYSMGWYRQAPGQERELVAAITSSGRTNYADSVKGRFTISRDNAKNTVYLQMTILKPEDTAVYYCNAEGYQFFTFDYWGQGTQVTVSS”, the “polyreactivity (PSR sort gate)” value is “low polyreactivity”. Regarding “QDQRVESAGGLVQAGGSLRLSCAASGNIFDPNAMGGYRQAPGKERELVAAIRRGGSTNYADSVKGRFTISRDNAKNTVYLQMISLKPEDTAVYDCDKSRVSFTDLEGYYWGQGTLVTVSS”, the “polyreactivity (PSR sort gate)” value was “low polyreactivity”. For the sequence “QEQHVESGGGLVQAGGSLRLSCAATGLIIYYYAMGWYRQAPGKEMEFVAAISTSGSRTYYADSVKGRFTISRDNAKNTVSLQMNSLKPEDTAVYYCAAEPGRSRYAWGYSYPYDYWGQGTQVTVSS”, the “polyreactivity (PSR sort gate)” value is given as “high polyreactivity”.

The values are drawn from the nanobody polyreactivity screen of Harvey et al. (2022).
